Patent US20200199217A1 (published 2020)
Positions count from the first letter of the chain named.

B1: mAb6_2.6 Fab (Fab, V domains shown)
VH: ELQLQESGPGLVKPSETLSLTCTVSGGSITASNYYWGWIRQPPGKGLEWIGSIDYTGSTYYEPSLKSRVTISVDTSKNQFSLKLSSVTAADTAVYYCATGNYYETYLGFDVWGQGTLVTVSS
VL: ESVLTQPPSVSGAPGQRVTISCTGSSSNIGAHYDVHWYQQLPGTAPKLLIYGNDNRPSGVPDRFSGSKSGTSASLAITGLQAEDEADYYCQSYDYSLSGYVFGGGTKLTVL
notes: Recombinant Fab with 8xHis tag
B2: mAb6.0 IgG (antibody, V domains shown)
VH: B1 VH with E1Q, A31S, E62N, T99R, N101K
VL: QESVLTQPPSVSGAPGQRVTISCTGSSSNIGAGYDVHWYQQLPGTAPKLLIYGNTNRPSGVPDRFSGSKSGTSASLAITGLQAEDEADYYCQSYDISLSGWVFGGGTKLTVLG

Columns and labels:
hu-IL-36β [1] = target: T1, hu-IL-36β (human); assay: SPR (Biacore 8K), biotinylated hu-IL-36β captured, Fab injected, 37 C
T1 construct: Used biotinylated in SPR and some ELISAs; treated here as the same molecule; also called human IL-36β; IL-36b
T1 chain: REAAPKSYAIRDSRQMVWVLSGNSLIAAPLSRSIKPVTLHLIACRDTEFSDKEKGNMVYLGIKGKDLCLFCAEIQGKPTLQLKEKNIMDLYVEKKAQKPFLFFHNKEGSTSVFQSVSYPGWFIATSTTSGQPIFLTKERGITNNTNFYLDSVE
Procedure: Briefly, a 1:4 dilution of Biotin CAPture Reagent (GE) into HBS-EP buffer (0.01 M HEPES pH 7.4, 0.15 M NaCl, 3 mM EDTA, 0.005% Surfactant P20) was applied to a CAP sensor chip at 2 uL/min flow rate. For kinetics measurements, 6 nM biotinylated human IL-36β was captured at 10 uL/min to achieve ˜50 response units in the second flow cell (FC2). FC1 was kept as a reference. Next, […] serial dilutions of Fab in HBS-P buffer (0.01M HEPES pH 7.4, 0.15M NaCl, 0.005% surfactant P20) from low (3.125 nM) to high (200 nM) were injected (flow rate: 10 uL/min) at 37° C. The sensorgram was recorded and subject to reference and buffer subtraction before evaluating by BIACORE® 8K Evaluation Software (version 1.1.1.7442). Association rates (kₒₙ) and dissociation rates (koff) were calculated using a simple one-to-one Langmuir binding model.

cy-IL-36β = target: T2, cy-IL-36β (cynomolgus monkey); assay: cell-based or functional assay
T2 chain: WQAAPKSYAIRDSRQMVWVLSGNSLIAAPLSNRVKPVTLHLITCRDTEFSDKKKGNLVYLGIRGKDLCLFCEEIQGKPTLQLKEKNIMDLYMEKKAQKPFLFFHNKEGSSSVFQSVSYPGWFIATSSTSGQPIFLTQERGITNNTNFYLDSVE

hu-IL-36β [2] = target: T1, hu-IL-36β; assay: cell-based or functional assay
hu-IL-36β [3] = target: T1, hu-IL-36β; assay: cell-based or functional assay

Row | Binder | kon (hu-IL-36β [1]) | IC50, HEK Blue SEAP reporter assay with cynomolgus IL-36 on human IL-36 receptor (cy-IL-36β) | blocking potency relative to the natural antagonist IL-36Ra, HaCat IL-8 assay (hu-IL-36β [2]) | IC50, HEK Blue SEAP reporter assay (hu-IL-36β [3])
1 | B1 | 850000 M⁻¹ s⁻¹ | – | – | –
2 | B2 | – | 1.96 nM | 1000 fold | 0.64 nM
